Measurements from the MegaScale stability set (Tsuboyama et al. 2023).

B1: HHH_rd1_0493 (parent)
chain: RDEDEKEKIKEALKRGNEDKAKEIAKRANVSPEEYERLRKEAE
B2: EHEE_rd4_0086 (parent)
chain: EIHIRTNGEEQARKVYKMLAKRNYDVKIEQHNGQWVVTAS

Variants of: B1
Assay: folding stability dG (cDNA display proteolysis); higher = more stable
Details: PBS, room temperature

Folding stability dG [kJ/mol], by site and new letter:
E7: L 12.9, D 11.3, G 11, F 12.5, H 12.3, A 12.9, I 12.8, K 13, M 13
E5: L 15.1, R 8.79, F 16.9, W 18.6, D 12.5, N 11.3, K 9.37, P 14.5, M 13.9, Q 12, C 10.1, Y 18.4, H 13.8, V 17, A 15.5, I 17, S 12.6, T 14.1, G 8.69
D2: K 11.8, Q 13.2, T 12.7, M 12, L 14.2, N 12.6, P 12.8, Y 14.1, R 11.7, F 13.5, V 13.3, A 12, S 11.3, C 12.3, H 12.8, W 13.3, I 13.4, E 13, G 12.3
K6: P 7.18, Q 9.98, C 7.53, Y 14.2, E 9.51, R 13.8, L 13.6, N 10.6, T 10.9, M 13, W 13.9, A 10.8, F 13.5, V 11.5, D 7.73, I 13.6, H 12.8, G 10.3, S 10.7
D4: W 12.7, F 11.4, M 12.4, R 12, P 10.4, A 11.8, H 11.8, E 12.4, Y 12.2, G 11.7, T 12.2, S 12.7, L 12.6, C 12.4, V 12, Q 12, I 12.3, K 11.8, N 12.1
R1: V 13.5, F 12.6, N 13.2, T 13.7, P 13.3, I 13.4, D 13.1, Y 13, W 12.7, A 13.5, E 12.6, Q 13, S 13.2, L 12.9, G 13, M 12.7, H 13, C 11.1, K 13.1
E3: S 12.1, A 12.1, R 12.3, H 12.5, T 12.3, C 10.8, K 12.3, I 11.5, V 11.5, W 12.6, D 13, L 12.1, Q 12.8, F 12.3, G 12, P 11.7, N 12.5, Y 12.6, M 11.8

Variants of: B2
Assay: as above
Details: PBS, room temperature

Folding stability dG [kJ/mol]: each site, then its substitutions
H31: G 3.55, L 8.87, R 8.28, P 0.703, N 7.21, I 10.2, S 7.45, A 6.99, K 8.55, E 7.74, V 9.36, C 8.74, M 8.48, F 8.82, T 7.13, Y 8.48, D 7.43, Q 8.15, W 8.99
N32: S 5.76, V 3.19, R 5.43, F 6.07, Q 6.9, P 1.22, T 3.41, M 6.85, E 7.36, K 6.43, D 7.93, W 4.69, G 7.78, A 7.12, Y 5.78, I 2.8, L 6.31, H 6.47
V36: S 5.13, M 6.62, N 1.95, L 7.45, R 4.48, I 9.02, E 3.91, T 5.81, K 2.75, G 1.94, W 9.63, H 6.54, D 1.61, Y 8.91, Q 4.46, A 3.59, F 8.64
I28: M 7.06, A 0.644, L 6.51, R -3.13, T -0.477, Q -1.93, Y 2.85, S -1.83, V 5.41, W 0.548, F 2.16, K -1.13
S40: E 4.28, Y 8.21, G 5.57, I 8.58, T 8.72, L 7.43, M 7.56, Q 6.57, A 6.46, R 9.41, F 8.51, K 9.17, W 9.2, N 6.91, D 3.37, V 8.29, H 7.39, P 4.85
G33: I 0.289, H 6.23, D 5.64, R 3.35, M 4.05, L 2.99, E 5.08, S 4.5, N 5.19, K 4.17, F 3.66, Y 2.69, T 3.52, V 1.56, A 3.56, W 1.76, Q 3.92
K27: Q 6.02, S 6.28, T 7.03, W 6.38, R 8.14, N 4.84, V 6.05, Y 6.08, M 5.51
Q34: S 6.99, P -3.94, V 9.51, G 6.59, H 8.54, N 6.34, Y 10.7, I 9.49, R 6.64, T 8.18, E 7.82, L 7.79, M 8.75, K 6.74, A 7.39, W 9.67, F 10.5, D 6.32
V37: I 7.49, M 0.184, L 3.53, W -0.105, F -0.0795
E29: V 8.28, T 8.46, F 10.2, A 7.52, G 6.18, W 9.77, D 5.27, M 8.09, I 8.25, Q 7.64, H 7.44, R 7.05, K 6.69, N 6.56, Y 10.4, L 7.31, S 8.33
T38: N 2.58, G 0.561, H 6.87, A 3.49, V 9.4, R 7.46, L 7.31, I 10.8, K 7.13, M 6.97, S 6.3, Q 3.48, Y 7.32, F 7.2, W 7.18, E 2.27, D 0.0962
A39: F 9.72, Q 1.94, G 6.03, K 3.03, Y 9.56, N 2.69, P 1.24, W 9.2, R 4.02, S 5.08, E 0.469, D 0.749, H 4.65, T 5.9, M 8.29, I 11.9, V 10.5, L 9.87
Q30: G 4.18, V 9.27, R 7.59, D 4.49, Y 9.62, W 7.55, T 6.24, A 5.56, E 7.76, I 8.79, L 8.06, P 3, H 8.07, F 9.96, C 9.7, N 8.43, M 7.57, K 7.88, S 6.63
W35: I -0.64, M -3.54, L -0.925, V -2.2, Y 3.83, F 4.24, T -3.18
